This is an account of results in the DeepSol protein solubility set.

A short description of the data set: soluble on expression in E. coli; label from the status in PepcDB or PDB records.
As to “VPITPLLHESVARFAATGADITTRAEPDLFVSIDPDHLRRILTAVLDNAITHGDGEIAVTAHARDGAVDIGVRDHGPGFADHFLPVAFDRFTRADTARGGRGSGLGLAIVAALTTTHGGHANATNHPDGGAELRITLPTPRPPFHEELPRITSSDTKDPNREHDTSDQ”, the “soluble on expression in E. coli” value is recorded as “not soluble”.
The same measure for “MGSDKIHHHHHHMKRVIINADDFGLSDGVNRAVIKAWQEGILTSASLMVGGDAFHEAVHLAKANPGLHVGLHLTLVQGRAVGEHGGFPSICDSKGAFSDDPVQTGMRYFFIRSFRKQLYREIEAQIVRFLQTGLPLSHVDGHLNIHMHPVVFDLLCGLMRKHGITTFRLCRENLRANLTLDRERRFGKMVDAFIFSKLAGRCRPILDHLGIGYAQEVKGLLNSGRMTEEYLLRVLDTLEDGTTELYFHPGCLPCAEITRRMPDYRHEEELAALMSPRVKGRLKELGIELGNYRGEVKTYV”: “not soluble”.
In the case of “MRSLADFEFNKAPLCEGMILACEAIRRDFPSQDVYDELERLVSLAKEEISQLLPLEEQLEKLIALFYGDWGFKASRGVYRLSDALWLDQVLKNRQGSAVSLGAVLLWVANRLDLPLLPVIFPTQLILRIECPDGEIWLINPFNGESLSEHMLDGWLKGNISPSAELFYEDLDEADNIEVIRKLLDTLKASLMEENQMELALRTSEALLQFNPEDPYEIRDRGLIYAQLDCEHVALNDLSYFVERCPEDPISEMIRAQINNIAHKHIVLHMAGDPLEHHHHHH”, the “soluble on expression in E. coli” value is given as “soluble”.
For “MDLSPLDVRYQEFPRAFRGYHRGAVREYLARVAEAMEALIRENEVLKERLRALEEENARLKEAEGELKRAVVAAERIARELKAQAEREAELLRKEAQAAKERLLQEAAQELKRLRAEIERARQEKALFLGQVRALFEGYLEALKRLEKTP”, the “soluble on expression in E. coli” value is “soluble”.
Next, “MICLEKVEDIPRLQELFAQILIVHHQARSDVLKVKGSKFTDKELEGVIGDANKPVFVYEDEAGTILCHLFLIIKEVSENDGPQKPIKTLFIDDLCVEEKARGQKLGEKLYQFALDYATEQECYNATLHVWNDNQGTLDFYEHLGVKPRYTEMKTVLKLEHHHHHH”: “not soluble”; “SNAMYKEGACLYRNPLRSKSDVKDWRMEGGGQISFDDHSLHLSHVQDEAHFVFWCPETFPDGIIVTWDFSPIEQPGLCMLFFAAAGIRGEDLFDPSLRKRTGTYPEYHSGDINALHLSYFRRKYAEERAFRTCNLRKSRGFHLAAMGADPLPSPDDADSPYRMKLIKDKGYVHFSINGLPILEWMDDGSTYGPVLTKGKIGFRQMAPMKAVYRDFAVHQAVRR”: “soluble”.
The same measure for “MAHHHHHHMGTLEAQTQGPGSMDNKKPKIITIASIKGGVGKSTSAIILATLLSKNNKVLLIDMDTQASITSYFYEKIEKLGINFTKFNIYEILKENVDIDSTIINVDNNLDLIPSYLTLHNFSEDKIEHKDFLLKTSLGTLYYKYDYIVIDTNPSLDVTLKNALLCSDYVIIPMTAEKWAVESLDLFNFFVRKLNLFLPIFLIITRFKKNRTHKTLFEILKTKDRFLGTISEREDLNRRIAENNNFDLNKDYIKEYENILEIFLKKI”: “soluble”.
The same measure for “MGHHHHHHSHMKTRQAFYLHTTKLTRIARRLCREILRPWHAARHPYLPINSAAIKAECTARLPEASQSPLVLKQAVRKPLEAVLRYLETHPRPPKPDPVKSVSSVLSSLTPAKVAPVINNGSPTILGKRSYEQHNGVDGNMKKRLLMPSRGTYLGLANHGQTRHMGPSRNLLLNGKSYPTKVRLIRGGSLPPVKRRRMNWIDAPDDVFYMATEETRKIRKLLSSSETKRAARRPYKPIALRQSQALPPRPPPPAPVNDEPIVIED”: “not soluble”.
Consider “MAGDPMNFVTTLTYLLPHRMLSSLARHVAYCQHPLIKQWLIDTVIAKFDVNLSEAAEPDAHAYPSFNAFFTRSLKTGIRLPDPNPDTLLMPADGRISQLGPIREGRIFQAKGQSFTATELLGDTAAAAAFTNGLFATVYLSPRDYHRVHMPCTGQLLKTVHVPGRLFSVGPDAVRQIPRLFARNERLACHFDTAFGPMVLVMVGALLVSGVETVWGGVEIPAYGDRITHKDYQGRNIAIERFAEMARFNYGSTVIVLLPPNVFTLAPHLTAESPVTLGQALAHRLSLNHSTQAPTQEKLEHHHHHH”, for which the “soluble on expression in E. coli” value is “not soluble”.
Turning to “MSLEYKQASIFDNEVKKNKPLADRMRPKTLDEFVGQEHLLGKGKLLRELIEKDNITSMILWGPPGVGKTTLAMIIANMTNSKFITFSAVLSGIKEIKEIMAKAELDAMYGTRTVVFIDEIHRFNKAQQDAFLPHVEKGNIILIGATTENPSFEVNSALLSRSKVFVMKPLTEEDLLILLKRALKDEQNGFGMYKIGITDEQLKKIALFANGDARVALNTLEIAVMGAKVIEGERIVTDDILADAMQKKTLLYDKQGEEHYNLISAFHKSLRNSDWDAAVYWLARMLEAGEDPLYIARRMIRFASEDIGLADPQALEMAVAAYNACHYIGIPECSVNLAQVAIYLALAPKSNAVYMAYNKAKKDAEETIAESVPIHLRNAPTKLMKELGYGKGYKYAHDFEEKVTDMQCLPDNLKDRKYYVPTDSGFEKDIQKRLEQISNLKKKGEGHHHHHH”, the “soluble on expression in E. coli” value was “soluble”.
Next, “MSLKAIFWDMDGTMVDSEPQWGIATYELSEAMGRRLTPELRELTVGSSLPRTMRLCAEHAGITLSDADYERYRAGMFARVHELFDESLVPNPGVTELLTELKALEIPMLVTTNTERDLATRSVAAVGNEFFIGSIAGDEVPTAKPAPDMYLEAARRVGFDPSECLVFEDSYNGMLGAVTAGCRVIGLHPEEVQAPEGVVPLRSLHGKNSFEGVTAEMVTAWYHQIEPAGVAKEGHHHHHH”: “soluble”; “MKGYIHVYTGNGKGKTTAALGLATRAACAGLKVFFGQFLKGRETSELKISEFLPNFEIVQYGTPEFIVGNPSEEQIKKAKSGLADAKERLVSEKYDVVVLDELCVAIHLGLFSKEEIEDLLNVKPENVELVITGRYAPEWLIEKADLVTEMKEVKHYYQKGVVARKGIEY”: “soluble”; “MSLSNTVHVFFGNKDSKVQVFKDKGTNQFANQVNLFMGDYLDTYFNRDKDTDLDKLKKYYGSGIDIKGQESRDIDMKLEHVSLVEIKSSVAVYDINYQIKDGDNWKSVLARINVPYKEKDGRYYVSDLPYYTDQSSYVADTVKGNSKLPTQSEVEGLSNKKLSGLKDYIVAFFKAYTSGDNSQMAPFSGAVSPLKSYEFEELDYAYFIKHKHSIIAVVQVTFKNEFGVKHQENFTLEVTESKQTSSYYVKSMKHGIDEDCRKEMKMDEGHHHHHH”: “soluble”.
Take “MGSDKIHHHHHHMSKLSNLITQYCPEGVEYKTLGECGKFYGGLTGKSKKDFEDGNSKFITYKNVYSNPALCLDVEDKVRIEPGERQRTLEYGDIVFTGSSETPDECGISSVVAEIPEENLYLNSFCFIFRFDDPSILLPDFAKHLFRSSELRYQIGKTASGVTRYNVSKKLMGKVSFPVPPLEVQREIVRVLDSFTLLTAELTAELTARKQQYEFYRDYLLNGNSDYDICNLGDVCDVVAGGTPSRKVSDYWEDGCIPWLGSTVCKNKKNVDEPTEFITELGLEKSSAKMMKKDTTLIALVGATIGKVAFTTFDVAINQNIAGVYPKDTSKINPSYIYYACTTLYPHFLNLTQGSKLAMANLTFVRGLKISVPPIDVQNHLVNVLDNFESITSDLSIGLPAEIEARKKQYEYYRDALLTYASTGKIIARQTEHN”: the “soluble on expression in E. coli” value is given as “not soluble”.
The same measure for “MGSDKIHHHHHHMKRQRLAIIDIGSNSIRLVINTINEHGHYQELYNFKTVARLSNHLDAQGNLTKEGTSILLTTLQKFRTLTEDHHCDRAIVVATAAMRKANNRKELLKLAEQETGFSIKLLSEYEEAYFGYLAIVNSTSIQDGITIDIGGGSTEITRFSNRKLLHYHSFPFGAITLYRDFFHSTDPSEEELASLQTFLESAFATLPWLQDAKDLPVIGIGGTARNLSLIHQRQTDYPLAGLHQYSFPAEELHSVTQMLQRLTSSEREGLDGLSKDRVDVIIPGTQAISSLVKTIGSSQFIMSRKGLRDGLFYSEILEQLNLECFPNVVEESFYQLYHQYEINLEHVKQVAKLATKLYEQLAPFYNGKLEHQQNLTLIHRAARVLYLGEHINPEASSQHTFYLLTNMSIDGLNHEERLALACVSSFKSKAQLLHMASPFMPLISKKQLKRFEFLGAILKLAYCLNRTRRHVIGKIGTIEAKRDALVLPLYYHYDLDPSFEQDYALKHVKHVEKVIKKTIELPFLPLSNFT”: “not soluble”; for “MGHHHHHHSHMLKDFLKEQGFEVRENHEVDAVIIGQDKEIEFKKIKNATSAVFLKGAKIIPVNLSKIVKDSDGLYFPGSGSYAYMFKHATNYEGEIPNLGKPSKEFINLALEGLPREKVFLISDDIYTDLMGAKELGIGTIFMTTGKYKQEELKKANFKPDYVFHSLKELMREIKKWLS”: “not soluble”; for “MRVNVPVQVPPPASPPQPSQPAGQAQGGVTAPVIKVLPGNPLPPAGSAFVDDFSSYPTGAVLPMVAPDRYGVYKAPNGTLSPAVAETFTPQGGLDKALRLEAANTAMLTTGAPDWTDYRVSFRFKYETGGTLDVGLFVHGSGDRMLIVRLGWGYTGGVHLIKVAGDQRFTLVSRRELKPLTEALKDQNWHDFAAEARSDGTVRVMVDQQTVIEWKDPDYRAGGIGIGINRLGDRIIWHIDDLKVERL”: “soluble”.
The same measure for “MVGFLKHLVPKRFRKKELVIPVVRMQGAIMAGGNQFRPALNLASYAPLLEKAFAVKDAPAVAISLNSPGGSPVQARMIYNRIRQLAEEKDKKVLIFVEDVAASGGYMIALAGDEIIADPTSIVGSIGVVSGGFGFPEMLRKIGVERRVYTAGENKVILDPFQPEKEGDIDYLKSLQVEIHNVFIDMVKMRRGSKLKGDDALFSGLFWTGMRGLDLGLIDGLGDMREVLRRRYGTKVKLQLISGGRSLFGKKVPGVNMALGLNAERLAAGAVSGLAEVAEEKALWSRFGLLEHHHHHH”: “soluble”; for “MAAEFVRKFQSFSESDKQWRAREEFIIRNLNRFEDESEIDQLLALSMVWANHVFMGCRYSNELLEKVCGMAEGIVVEDAPHFTTRDEIMKQRNQ”: “soluble”; for “MRGSHHHHHHGSAELHLESRGGSGTQLRDGAKVATGRIICREAHTGFHVWMNERQVDGRAERYVVQSKDGRHELRVRTGGDGWSPVKGEGGKGVSRPGQEEQVFFDVMADGNQDIAPGEYRFSVGGACVVPQEDNKQGFTPSGTTGTTKLTVT”: “soluble”.
In the case of “MERTFSEALKNRRTYYSITDQSPIPDQEIECIINLAVRHVPSAFNSQSTRVVLLLGKSHKKLWNIVKDALRKIVPGEAFAKTEEKIDNSFACGYGTVLFFEDQKVVKGLQEAFPSYQENFPGWSLQTSAMHQLAVWVMLEDVGFGASLQHYNPLIDDEVRRAWNLPAHWHLIAEMPFGVPVNKPGEKEFQPLEERIKVFK”, the “soluble on expression in E. coli” value is on record as “not soluble”.
The same measure for “MSNVAKSYKSSDPVIAYCSEHTTIQSPLQAELLKETLDNAPMSMMLGAPEVLTFGQNFIRSFGGRRVIDVGTYTGASALAWALAVPDDGEVFTFDIDHTNYKKFGVPIISKCEKTFKKIRAIEGSALDGLDKLIADGQSGTFDFAFIDADKVNYSNYYDRAVTLLRKGGVIFVDNSLWNGSVCDPARRTEPSTVAIHQANDKIFKDDRTYSALINLGDGTHIAFKK”: “not soluble”.
